Laboratory results reported in the nanobody polyreactivity screen of Harvey et al. (2022).

Assay: yeast display, Sf9 membrane polyspecificity reagent, FACS + sequencing; frameworks hold sequencing errors
Outline: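 Genes from sorted yeast were amplified by colony PCR, read by MiSeq 2 × 250 sequencing and filtered on CDR length. These cells carried a synthetic nanobody library in Saccharomyces cerevisiae BJ5465 and were sorted by FACS into low and high (top ~1%) gates on anti-HA and streptavidin fluorescence. Polyreactivity is labelled according to the gate of origin.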

For “QVQLVESGGGLVQAGGSLRLSCAASGRTYDNTMGWYRKAHGKESELVAAISWSGGRTRYADSVKGRFTISRDNAKNTVYLQMNSLKPEDTAVYYCAAANGGYPPYRYVYGYYYWGQGTQVTVSS”, the “polyreactivity (PSR sort gate)” value was “high polyreactivity”.

In the case of “QVQLVESGGGLVQAGGSLRLSCAASGRTYGGYAMGWYRQAPGKERELVAVINWRGGSTYYADSVKGRFTISRDNAKHTVYLQMNILKPEDTAVYYCNKVSLRTQSAQFHYWGQGTQVTVSS”, the “polyreactivity (PSR sort gate)” value is reported as “high polyreactivity”.

With “QVQLVESGGGLVQAGGSLRLSCAASGRTYGYAMGSYRPAPGKERELVARITWRGGSTSYADSVKGRFTISRDNAKNTVYLQMNILKPEDTAVYYCAAGFYFPVYTYVRIRYYYWGQGTQVTVSS” the “polyreactivity (PSR sort gate)” value was “high polyreactivity”.

In the case of “QVQLVESGGGLVQAGGSLRLSCAASGRTYGYAMGWYTQAPGIERELVARINRTTGSTYYADSVKGRFTISRDNAKNTVYLQMNSLKPQDTAVYYCAKSSYSRALKLYYWGQGSQVTVSS”, the “polyreactivity (PSR sort gate)” value is reported as “high polyreactivity”.

With “QVQLVESGGGLVQAGGSLRLSCAASGRTYHQYAMGWYRQAPGKERELVARITSGGRTNYADSVKGRFTISRDNAKNTVYLHMNSLKPEDTAVYYCPAASSYYFYISSKLDYWGQGTQVTVSS” the “polyreactivity (PSR sort gate)” value was “high polyreactivity”.

For “QVQLVESGGGLVQAGGSLRLSCAASGRTYISNVIGWYRQAPGKERELVAAISGSSGSTRYADSVKGRFTISRDNAKNTVYLQMNSLKPEDSAVYYCAARAPWPKWGYYYWGQGTQVTVSS”, the “polyreactivity (PSR sort gate)” value was “high polyreactivity”.

In the case of “QVQLVESGGGLVQAGGSLRLSCAASGRTYRYAMGWYRQAPGNERELVAAIRWSGGSTYYADSVKGRFTISRDNAKNTVYIQMNSLKPEDTAVYYCAADSYATRYYYWGQGTQVTVSS”, the “polyreactivity (PSR sort gate)” value is reported as “high polyreactivity”.

For “QVQLVESGGGLVQAGGSLRLSCAASGRTYVRNGMGWYRQAPGKERELVAAISRGGSTNYADSVKGRFTISRDNAKNTVYLEMNSLKPEDTAVYYCNARTAEYRPYYYRYNYWGQGTQVTLSS”, the “polyreactivity (PSR sort gate)” value was “high polyreactivity”.

For “QVQLVESGGGLVQAGGSLRLSCAASGRTYVYTMGWYRQAPGKERELVAAIRYSGGRTYYADSVKGRFTISRDNAMNTVYLQMNSLKPEDTAVYYCAARNYATGVRYDYWGQGTQVTVSS”, the “polyreactivity (PSR sort gate)” value was “high polyreactivity”.

With “QVQLVESGGGLVQAGGSLRLSCAASGSFFSTYAMGWYRQAPGKERELVAAISVSGSSTYYADSVKGLFTISRDNAKNTVYLQMNSLKPEDTAVYYCNKAFRSVRPRRRYDYWGQGTQVTVSS” the “polyreactivity (PSR sort gate)” value was “low polyreactivity”.

For “QVQLVESGGGLVQAGGSLRLSCAASGSICYGYTMGWYRQAPGKEREFVAAITGSGGSTYYADSVKGRFTISRDNAKNTVYLQMNSLKPEDTAVYYCAARRYVNRRYDYWGQGTQVTVSS”, the “polyreactivity (PSR sort gate)” value was “high polyreactivity”.

With “QVQLVESGGGLVQAGGSLRLSCAASGSIDWNAMGWYRQAPGKEREFVAAISSSGGRTSYADSVKGRFTISRDNAKNTVYLQMNSLKPEDTAVYYCAAAGSYDGDRYYYWGQGTQVTVSS” the “polyreactivity (PSR sort gate)” value was “high polyreactivity”.

With “QVQLVESGGGLVQAGGSLRLSCAASGSIFAANAMGWYRQAPGKEREFVASISRSGGSTYYADSVKGRFTISRDNAKNTVYLQMTSLKPEDTAVYYCATRTRIYSARDHYGYWGQGTQVTVSS” the “polyreactivity (PSR sort gate)” value was “low polyreactivity”.

In the case of “QVQLVESGGGLVQAGGSLRLSCAASGSIFAANTMGWYRQAPGKERELVAAITGSGASTYYADSVKGRFTISRDNAKNTVYLQMNSLKPEDTAVYYCAARRYTSYYKDGWYAYYYWGQGTQVTVSS”, the “polyreactivity (PSR sort gate)” value is reported as “high polyreactivity”.

With “QVQLVESGGGLVQAGGSLRLSCAASGSIFAAYAMGGYRQAPGKERELVATIRWTSGSTYYADSVKGRFTISRDNAKNTVYLQMNSLKPEDTAVFYCAAQKNKYYWPRFGYWGQGTQVTGSS” the “polyreactivity (PSR sort gate)” value was “high polyreactivity”.

For “QVQLVESGGGLVQAGGSLRLSCAASGSIFAAYAMGWYRQAPGKERELVAAISLDDGSTYADSVKGRFTISRDNAKNTVYLQMNSLKPEDTAVYYCNARYKSRLYPRYDYWGQGTQVTVSS”, the “polyreactivity (PSR sort gate)” value was “high polyreactivity”.

With “QVQLVESGGGLVQAGGSLRLSCAASGSIFADNAMGWDRQAPGKERELVAVISFSGSSTYYADSVKGRFTISRDNAKNTVYFQMNSVKPEDTAVYYWNAVRYRLERFDYWGQGTQVTVSS” the “polyreactivity (PSR sort gate)” value was “high polyreactivity”.

With “QVQLVESGGGLVQAGGSLRLSCAASGSIFADYAMGWYRQAPGKERELVAAITGSGGRTYYADSVKGRFTISRDNAKNTVYLQMNSLKPEDTAVYYCAAYQVVWDPYTRYDYWGQGTQVTVSS” the “polyreactivity (PSR sort gate)” value was “low polyreactivity”.

For “QVQLVESGGGLVQAGGSLRLSCAASGSIFADYAMGWYRQAPGKERELVAAITYTDDRTYYADSVKGRFTISRDNAKNTVYLQMNSLKPEDTAVYYCNRVFTCRYGYRYEYWGQGSQVTVSS”, the “polyreactivity (PSR sort gate)” value was “high polyreactivity”.

In the case of “QVQLVESGGGLVQAGGSLRLSCAASGSIFADYTMGWYRQAPGKERELVAPINYRDGGTSYADSVKGRFTISRDKANNTVYLQMNSLKPEDTAVYYCTKQVDLSGQWDYWYGYYTYDYWGPGTQVTVSS”, the “polyreactivity (PSR sort gate)” value is reported as “low polyreactivity”.

In the case of “QVQLVESGGGLVQAGGSLRLSCAASGSIFAGNTMGWSRQAPGKEREFVASIRSSSGSTYYADSVKGRFTISRDNAKNTVYLQMNSLKPEDTAVYYCARVAPASGVRWYYYWGQGTQVTVSS”, the “polyreactivity (PSR sort gate)” value is reported as “high polyreactivity”.

In the case of “QVQLVESGGGLVQAGGSLRLSCAASGSIFAGNVMGWYRQAPGKERELVAAISRRGGRTYYADSVKGRFTISRDNAKNTVYLQMNSLKPEDTAVYYCAARRDPVLGNSDFWGQGTQVTVSS”, the “polyreactivity (PSR sort gate)” value is reported as “high polyreactivity”.

In the case of “QVQLVESGGGLVQAGGSLRLSCAASGSIFAGYAMGLYRQAPGKERELVAAISRSGDSTYYADSVKGRFTISRDNAKNTVYLQMNSLKPEDTAVYYCAAVLSYSYVRYNYWGQGTQVTVSS”, the “polyreactivity (PSR sort gate)” value is reported as “high polyreactivity”.

With “QVQLVESGGGLVQAGGSLRLSCAASGSIFAGYAMGWYRQAPGKERELVAAISWSGGGTYYADSVKGRFTISRDNAKNTVYLQMNSLKPEDTAVYYCNAYGYRHRGNGYWGQGTQVTVSS” the “polyreactivity (PSR sort gate)” value was “high polyreactivity”.

In the case of “QVQLVESGGGLVQAGGSLRLSCAASGSIFAGYVMGWYRPAPGKERELVAATYYADSVKGRFTISRDNAKNTVYLQMNSLKPEDTAVYYCNAESLYTHYNDTSLTVEYGYWGQGTQVTVSS”, the “polyreactivity (PSR sort gate)” value is reported as “low polyreactivity”.

In the case of “QVQLVESGGGLVQAGGSLRLSCAASGSIFAHYAMGWYRQAPGKERELVAAISKNAGSTYYADSVKGRFTISRDNAKNTVYLQMNSLKPEDTAVYYCATGYQKPYSSDYWGQGTQVTVSS”, the “polyreactivity (PSR sort gate)” value is reported as “high polyreactivity”.

For “QVQLVESGGGLVQAGGSLRLSCAASGSIFAHYTMGWYRQAPGKERELVAAISGSGGSTYYADSVKGRFTISCDNAKNTVYLQMNSLKPEDTAVYYCNKRYRPVGPYDYWGQGTQVTVSS”, the “polyreactivity (PSR sort gate)” value was “high polyreactivity”.

For “QVQLVESGGGLVQAGGSLRLSCAASGSIFAINAMGWYRQAPGKERELVARISWSGGRTYYADSVKGRFTISRDNAKNTVYLQMNSLKPEDTAVYYCAKRYYKSLNRDEFDSWGQGTQVTVSS”, the “polyreactivity (PSR sort gate)” value was “high polyreactivity”.

In the case of “QVQLVESGGGLVQAGGSLRLSCAASGSIFAKNAMGWYRQAPGKERELVAAISSSGGRTYYADSVKGRFTISRDNAKNTVYLQMNSLKPEDTAVYYCAADLRYIYWSYYYWGQGTQVTVSS”, the “polyreactivity (PSR sort gate)” value is reported as “low polyreactivity”.

With “QVQLVESGGGLVQAGGSLRLSCAASGSIFAKYAMGWYRQAPGKERELVAAISSGGSTYYADSVKGRFTISRDNAKNTVYIQMNSLKPEDTAVYYCAADYGSDYTKGDYWGQGTQVTVSS” the “polyreactivity (PSR sort gate)” value was “low polyreactivity”.

With “QVQLVESGGGLVQAGGSLRLSCAASGSIFALYAMGWYRQAPGKERELVAAISYRGGRTYYADSVKGRFTISRDNAKNTVYLQMNSLKPEDTAVYFCATDFPGKFDYWGQGTQVTVSS” the “polyreactivity (PSR sort gate)” value was “low polyreactivity”.

In the case of “QVQLVESGGGLVQAGGSLRLSCAASGSIFALYAMGWYRQAPGQERELVAAISYRGGRTYYADSVKGRFTISRDNAKNTVYLQMNSLKPEDTAVYYCNARAFPFGTGVQGFGFGYWGQGTQVTVSS”, the “polyreactivity (PSR sort gate)” value is reported as “low polyreactivity”.

In the case of “QVQLVESGGGLVQAGGSLRLSCAASGSIFAPDVMGWYRQAPGKERELVAAITESGGRTYYAASVKGRFTISRDNAKNTVYLQMNSLKPVDTAVYSCAARTFDRNRQLRRQWYDYWGLGTQVTVSS”, the “polyreactivity (PSR sort gate)” value is reported as “high polyreactivity”.

For “QVQLVESGGGLVQAGGSLRLSCAASGSIFAPNAMGWYRQAPGKEREFVAGITQSGTSTYADSVKGRFTISRDNAKNTVYLQMNSLKPEDTAVYYCAAEYYYGYWYGYIISYDYWGQGTQVTVSS”, the “polyreactivity (PSR sort gate)” value was “high polyreactivity”.

For “QVQLVESGGGLVQAGGSLRLSCAASGSIFAPYAMGWTRQAPGKERELVASISVRSGSTHYADSVKGRFTISRDNAKNTVYLQMNCLNPEDTAVYYCNARTYDYSWVWESRWWYYYWGQGTQVTVSS”, the “polyreactivity (PSR sort gate)” value was “high polyreactivity”.

For “QVQLVESGGGLVQAGGSLRLSCAASGSIFAPYSMGWYRQAPGKERELVAAITWSGDSTYYADSVKGRFTISRDNAKNTVYLQMNSMKPEDTSVYYCATEEVYGQGNYWGQGTQLTVSS”, the “polyreactivity (PSR sort gate)” value was “low polyreactivity”.

For “QVQLVESGGGLVQAGGSLRLSCAASGSIFAQYAMGWYRQAPGKERELVATISSVGSTNYADSVKGRFTISRDNAKNTVYLQMNSLKPEDTAVYYCNAVRSGWGYFYGLNYWGQGTQVTVSS”, the “polyreactivity (PSR sort gate)” value was “low polyreactivity”.

In the case of “QVQLVESGGGLVQAGGSLRLSCAASGSIFARYAMGWYRQAPGKEREFVAAITGRGGTTNYADSVKGRFTISRDNAKNTVYLQMNSLKPEDTAVYYCNARDRYREHDYWGQGTQVTVSS”, the “polyreactivity (PSR sort gate)” value is reported as “high polyreactivity”.

For “QVQLVESGGGLVQAGGSLRLSCAASGSIFARYAMGWYRQAPGKERELVATITRGGSTNYADSVKGRFTISRDNAKNTVYLQMNSLKPDDTAVYYCARTSYGRLDYWGQGPQVTVSS”, the “polyreactivity (PSR sort gate)” value was “low polyreactivity”.

In the case of “QVQLVESGGGLVQAGGSLRLSCAASGSIFASNAMGCYRQAPGKERELVAAINSGDSTNYADSVKGRFTISRDNAKNTVYLQMNSLKPEDTAVYYCARGLEERYDYWGQGTQVTVSS”, the “polyreactivity (PSR sort gate)” value is reported as “low polyreactivity”.

In the case of “QVQLVESGGGLVQAGGSLRLSCAASGSIFASNAMGWYRQAPGKERELVAAISTSGGSTYYADSVKGRFTISRDNAKNTVYLQMNSLKPEDTAVYYCAKLLARGFRIWQDYDYWGQGTQVTVSS”, the “polyreactivity (PSR sort gate)” value is reported as “low polyreactivity”.

For “QVQLVESGGGLVQAGGSLRLSCAASGSIFASNTMGWYRQAPGKERELVAAISFRGGRTYYADSVKGRFTISRDNAKNTVYLQMNSLKPEDTAVYYCNAAYGRYPRGGYWGQGTQVTVSS”, the “polyreactivity (PSR sort gate)” value was “high polyreactivity”.

In the case of “QVQLVESGGGLVQAGGSLRLSCAASGSIFASNTMGWYRQAPGKERELVAGITKIGSSTYYADSVKGRFTISRDHAKNTVYLQMNSLKPEDTSVYYSNAYGPNIYSSRYDYWGQGTQVTLSS”, the “polyreactivity (PSR sort gate)” value is reported as “low polyreactivity”.
